Experiments:
Test in all cases: SPR; Fcγ receptor affinities (KD) by Surface Plasma Resonance; mAb up to 6.4 µM
mFcγRIIb (mouse) = mFcγRIIb (mouse) (UniProt P08101)
mFcγRIV (mouse) = target: mFcγRIV (mouse)
mFcγRIII (mouse) = mFcγRIII (mouse) (UniProt P08508)
hFcγRIIIa (human) = hFcγRIIIa (human) (UniProt P08637)
hFcγRIIb (human) = hFcγRIIb (human) (UniProt P31994)
hFcγRIIa (human) = hFcγRIIa (human) (UniProt P12318)
hFcγRI (human) = hFcγRI (human) (UniProt P12314)
Chain of hFcγRI (human) (P12314 16-374): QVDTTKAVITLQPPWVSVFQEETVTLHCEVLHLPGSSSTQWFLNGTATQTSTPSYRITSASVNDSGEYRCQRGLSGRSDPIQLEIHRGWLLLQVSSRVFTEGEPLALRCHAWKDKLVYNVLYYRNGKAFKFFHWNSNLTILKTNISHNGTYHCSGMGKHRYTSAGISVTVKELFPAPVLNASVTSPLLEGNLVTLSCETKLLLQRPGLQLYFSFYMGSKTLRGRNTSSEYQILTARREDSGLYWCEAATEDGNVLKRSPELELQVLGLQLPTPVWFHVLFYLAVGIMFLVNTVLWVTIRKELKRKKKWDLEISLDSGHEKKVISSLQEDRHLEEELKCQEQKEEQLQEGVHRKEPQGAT

Chain of hFcγRIIb (human) (P31994 43-310): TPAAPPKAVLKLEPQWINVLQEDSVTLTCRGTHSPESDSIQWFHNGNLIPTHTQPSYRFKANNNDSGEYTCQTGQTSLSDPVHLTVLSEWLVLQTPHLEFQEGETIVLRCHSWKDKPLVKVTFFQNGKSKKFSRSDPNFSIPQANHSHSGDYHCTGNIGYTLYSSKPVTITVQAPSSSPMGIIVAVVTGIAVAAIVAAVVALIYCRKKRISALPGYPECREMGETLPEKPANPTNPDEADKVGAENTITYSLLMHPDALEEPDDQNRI
Chain of hFcγRIIa (human) (P12318 34-317): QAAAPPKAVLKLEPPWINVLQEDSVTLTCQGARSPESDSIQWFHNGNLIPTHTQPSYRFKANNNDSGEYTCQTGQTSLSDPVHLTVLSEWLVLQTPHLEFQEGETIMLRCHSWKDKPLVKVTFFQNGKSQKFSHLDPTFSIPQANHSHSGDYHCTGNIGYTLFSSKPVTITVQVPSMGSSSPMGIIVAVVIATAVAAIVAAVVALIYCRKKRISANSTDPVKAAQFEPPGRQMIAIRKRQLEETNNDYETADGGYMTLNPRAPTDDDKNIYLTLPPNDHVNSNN
Chain of mFcγRIIb (mouse) (P08101 30-330): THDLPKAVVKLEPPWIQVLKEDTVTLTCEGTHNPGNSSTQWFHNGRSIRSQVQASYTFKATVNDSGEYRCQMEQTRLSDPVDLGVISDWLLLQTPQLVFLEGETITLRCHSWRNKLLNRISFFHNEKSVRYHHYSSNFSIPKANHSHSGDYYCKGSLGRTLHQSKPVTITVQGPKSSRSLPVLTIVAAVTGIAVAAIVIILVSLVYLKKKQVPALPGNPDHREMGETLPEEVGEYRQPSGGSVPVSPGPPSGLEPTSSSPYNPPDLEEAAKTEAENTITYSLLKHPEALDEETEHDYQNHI
Chain of mFcγRIII (mouse) (P08508 31-261): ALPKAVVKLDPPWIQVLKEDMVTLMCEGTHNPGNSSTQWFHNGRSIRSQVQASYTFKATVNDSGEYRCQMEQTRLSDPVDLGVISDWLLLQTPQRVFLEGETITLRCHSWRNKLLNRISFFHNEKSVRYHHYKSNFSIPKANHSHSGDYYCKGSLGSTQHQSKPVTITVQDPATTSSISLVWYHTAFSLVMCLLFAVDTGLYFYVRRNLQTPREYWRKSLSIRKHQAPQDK
Chain of hFcγRIIIa (human) (P08637 17-254): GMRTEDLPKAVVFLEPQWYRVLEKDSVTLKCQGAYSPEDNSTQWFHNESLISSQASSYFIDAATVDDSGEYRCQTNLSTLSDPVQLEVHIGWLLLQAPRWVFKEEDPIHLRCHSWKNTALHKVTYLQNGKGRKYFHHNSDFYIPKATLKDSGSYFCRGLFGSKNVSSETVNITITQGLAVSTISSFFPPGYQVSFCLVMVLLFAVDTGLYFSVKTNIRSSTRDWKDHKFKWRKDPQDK
Chain of mFcγRIV (mouse) (A0A0B4J1G0 21-249): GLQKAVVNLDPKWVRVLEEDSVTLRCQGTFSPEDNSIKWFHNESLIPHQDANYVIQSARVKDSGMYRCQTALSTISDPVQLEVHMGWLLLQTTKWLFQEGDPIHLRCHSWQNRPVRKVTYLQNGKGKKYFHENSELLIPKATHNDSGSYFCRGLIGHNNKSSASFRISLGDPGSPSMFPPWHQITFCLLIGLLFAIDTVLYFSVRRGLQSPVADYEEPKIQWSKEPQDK

Kd (mFcγRIIb (mouse)) [µM] | Kd (mFcγRIV (mouse)) [µM] | Kd (mFcγRIII (mouse)) [µM] | Kd (hFcγRIIIa (human)) [µM] | Kd (hFcγRIIb (human)) [µM] | Kd (hFcγRIIa (human)) [µM] | Kd (hFcγRI (human)) [µM] | Substance
> 4.5 | – | – | – | – | – | – | SAR255952 (antibody)
0.456 | 0.022 | 0.119 | – | – | – | – | 3D6mIgG2b (antibody)
– | – | – | 0.472 | 2.06 | 0.794 | 0.00086 | 3D6-huIgG1 (antibody)
– | – | – | – | 1.83 | 2.64 | 0.244 | SAR228810 (antibody)

— article PMC6264593
